According to US20070254831A1 (published 2007):
Where two headings read alike, the source gives them in different places. Numbered stars: 1 amine (or outer) side, 2 acyl side, 3 side chain; on linkers, the order of the positions; unused ones are H or OH. Bridge positions count the residues as written; N and C are the ends. Square brackets hold non-standard residues; d marks the D form. Ends that are not written are not given here. X3 = 3(S)‑3‑amino‑2‑oxo‑1‑azepine acetic acid, O=C1[C@@H](N[*:1])CCCCN1CC(=O)[*:2]; 3‑amino‑2‑oxo‑1‑piperidine‑acetic acid = dipeptide mimetic in place of Gly-Gly; 6,5‑bicyclic dipeptide mimic = not defined here; Pen = CC(C)(S)[C@H](N)C(=O)O; NMeA = CN[C@@H](C)C(=O)O; Sar = CNCC(=O)O

What was measured:
[1] = molecular target: T1, soluble human FcRn (human, UniProt P55899 24-297; P61769 21-119, biotinylated (Sulfo-NHS-LC-Biotin) in the ELISA; amine-coupled to CM5 chip in SPR); assay: SPR, pH 6
T1 construct: also called shFcRn; biotinylated shFcRn
T1 sequence (P55899 24-297 limits assumed, chain 1 of 2): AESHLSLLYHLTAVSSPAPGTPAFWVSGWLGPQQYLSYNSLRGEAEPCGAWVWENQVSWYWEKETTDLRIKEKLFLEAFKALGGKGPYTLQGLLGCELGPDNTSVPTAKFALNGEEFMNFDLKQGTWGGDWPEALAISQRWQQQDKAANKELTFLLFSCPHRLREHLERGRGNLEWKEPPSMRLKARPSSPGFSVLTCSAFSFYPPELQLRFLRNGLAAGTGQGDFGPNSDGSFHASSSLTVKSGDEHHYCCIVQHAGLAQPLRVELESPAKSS
T1 sequence (P61769 21-119 limits assumed, chain 2 of 2): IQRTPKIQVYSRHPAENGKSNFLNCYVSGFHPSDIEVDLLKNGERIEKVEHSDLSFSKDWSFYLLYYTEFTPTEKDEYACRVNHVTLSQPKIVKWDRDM
Procedure: (§1) The following steps were performed to cross-link soluble human or cynomolgus FcRn to the dextran surface of a CM5 sensor chip (Biacore AB, Uppsala, Sweden) by an amine coupling reaction involving 1-ethyl-(3-dimethylaminopropyl)-carbodiimide hydrochloride (EDC) (Biacore AB, Uppsala, Sweden) and N-hydroxysuccinimide (NHS) (Biacore AB, Uppsala, Sweden) as recommended by Biacore (BIAapplications Handbook, version AB, section 4.2, Biacore AB, Uppsala, Sweden). […] Residual sites on the FcRn flow cell were blocked with 1 M ethanolamine hydrochloride pH 8.5 (Biacore AB, Uppsala, Sweden). A control flow cell was blocked with ethanolamine for reference subtraction. For analysis of the monomeric peptides, FcRn was coated to a final density of 4000-5000 response units (RU). For analysis of the peptide dimers, FcRn was coated to a density of 2000-2500 RU. All SPR measurements were performed using a BIACORE 3000 Instrument (Biacore AB Uppsala, Sweden). For measurements done at either pH 6 or pH 7.4, experiments were performed in 50 mM phosphate, 100 mM sodium chloride, 0.01% surfactant P20 (Biacore AB, Uppsala, Sweden).
(§2) Ten, 2-fold dilutions of the peptide were injected over the FcRn-CM5 chip at a rate of 20 μl/min for 2 min. The peptide was dissociated from the chip for 2.5 minutes with buffer. Any remaining peptide was removed from the chip with a 30 second injection of HBS-P buffer (Biacore AB, Uppsala, Sweden) at a rate of 30 μl/min. Sensorgrams were generated and analyzed using BiaEval software version 3.1 (Biacore AB, Uppsala, Sweden). The equilibrium RU observed for each injection was plotted against concentration. The equilibrium KD values were derived by analysis of the plots using the steady state affinity model included in the BiaEval software.

[2] = molecular target: T1, soluble human FcRn; assay: SPR, pH 7.4
Procedure: as §1, §2

[3] = molecular target: T1, soluble human FcRn; assay: ELISA, competitor human IgG
Procedure: (§3) The wells were coated with 100 μl/well of 1 μg/ml biotinylated-shFcRn in Buffer A. The plate was sealed and incubated at 37° C. for 2 hours. Afterwards, the plate washed with 200 μl/well of Buffer B (Buffer B: 100 mM MES pH 6, 150 mM NaCl, 0.5% BSA IgG-free (Jackson ImmunoResearch, West Grove, Pa.), 0.05% Tween-20). […] To allow for mixing, the plate was rocked for 2 minutes, sealed and incubated at 37° C. for 2 hours. […] The plate was covered, incubated for 30 minutes at room temperature and washed 4 times with 200 μl/well of ice-cold buffer B. SureBlue TMB substrate solution (100 μl/well, KPL, Gaithersburg, Md.) was added and the plate was allowed to incubate at room temperature until color developed, which took 5 to 10 minutes. Once color developed, 100 μl/well of TMB stop solution (KPL, Gaithersburg, Md.) was added and the absorbance was measured at 450 nm. The data was plotted as absorbance vs. peptide concentration to derive the inhibitory concentration 50% (IC₅₀) values.

[4] = molecular target: T1, soluble human FcRn; assay: SPR, pH 6; remark: listed apart in the source
Procedure: as §1, §2

[5] = molecular target: T1, soluble human FcRn; assay: SPR, pH 7.4; remark: listed apart in the source
Procedure: as §1, §2

[6] = molecular target: T1, soluble human FcRn; assay: ELISA, competitor human IgG; remark: listed apart in the source
Procedure: as §3

[7] = molecular target: T1, soluble human FcRn; assay: ELISA, competitor human IgG; remark: listed apart in the source
Procedure: as §3

[8] = molecular target: T1, soluble human FcRn; assay: SPR, pH 6; remark: listed apart in the source
Procedure: as §1, §2

[9] = molecular target: T1, soluble human FcRn; assay: ELISA, competitor human IgG; remark: listed apart in the source
Procedure: as §3

[10] = molecular target: T1, soluble human FcRn; assay: SPR, pH 6; remark: listed apart in the source
Procedure: as §1, §2

[11] = molecular target: T1, soluble human FcRn; assay: SPR, pH 7.4; remark: listed apart in the source
Procedure: as §1, §2

[12] = molecular target: T1, soluble human FcRn; assay: ELISA, competitor human IgG; remark: listed apart in the source
Procedure: as §3

[13] = molecular target: T1, soluble human FcRn; assay: ELISA, competitor human IgG; remark: listed apart in the source
Procedure: as §3

[14] = molecular target: T1, soluble human FcRn; assay: ELISA, competitor human IgG; remark: listed apart in the source
Procedure: as §3

[15] = molecular target: T1, soluble human FcRn; assay: SPR, pH 6; remark: listed apart in the source
Procedure: as §1, §2

[16] = molecular target: T1, soluble human FcRn; assay: SPR, pH 7.4; remark: listed apart in the source
Procedure: as §1, §2

[17] = molecular target: T1, soluble human FcRn; assay: ELISA, competitor human IgG; remark: listed apart in the source
Procedure: as §3

[18] = molecular target: T1, soluble human FcRn; assay: SPR, pH 6; remark: listed apart in the source
Procedure: as §1, §2

[19] = molecular target: T1, soluble human FcRn; assay: ELISA, competitor human IgG; remark: listed apart in the source
Procedure: as §3

[20] = molecular target: T1, soluble human FcRn; assay: ELISA, competitor human IgG; remark: listed apart in the source
Procedure: as §3

[21] = molecular target: T1, soluble human FcRn; assay: SPR, pH 6; remark: listed apart in the source
Procedure: as §1, §2

[22] = molecular target: T1, soluble human FcRn; assay: ELISA, competitor human IgG; remark: listed apart in the source
Procedure: as §3

[23] = molecular target: T1, soluble human FcRn; assay: ELISA, competitor human IgG; remark: listed apart in the source
Procedure: as §3

Question: How did the Kd [1] turn out when QRFCTGHFAGLYPCNGP-NH2 (disulfide 4-14 (inferred)) [SEQ ID NO:31] was run?
Answer: 230 µM

Question: And the Kd [2]?
Answer: 200 µM

Question: And the IC50 [3]?
Answer: > 125 µM

Question: For QRFCTGHFGGAYPCNGP-NH2 (disulfide 4-14 (inferred)) [SEQ ID NO:33], which Kd [1] is on record?
Answer: 26 µM

Question: And the Kd [2]?
Answer: 81 µM

Question: And the IC50 [3]?
Answer: 107 µM

Question: How did the Kd [2] turn out when QRFCTGHFGGLYACNGP-NH2 (disulfide 4-14 (inferred)) [SEQ ID NO:35] was run?
Answer: 100 µM

Question: Which results are given for AGPSYCIEGHIDGIYCFNAGTGGGK-NH2 (disulfide 6-16 (inferred)) [SEQ ID NO:9]?
Answer: Kd [4]: 8.8 µM; Kd [5]: 76 µM; IC50 [6]: 49 µM

Question: QRYXTGHFGGLYPCNGP (Pen at 4; disulfide; C-terminal amide) [Peptide No. 97] was tested. Which IC50 [7] did it give?
Answer: 2.4 µM

Question: For QRWXTGHFGGLYPCNGP (Pen at 4; disulfide; C-terminal amide) [Peptide No. 98], which IC50 [7] is on record?
Answer: 1.5 µM

Question: With QRFXGGHFGGLYPCNGP (Pen at 4; disulfide; C-terminal amide) [Peptide No. 195] as the binder, how does the Kd [8] read?
Answer: 0.76 µM

B1: Peptide No. 213 (peptide)
peptide: QRF[Pen][NMeA]GHFGGLYPCNGP-NH2
modifications: disulfide 4-14; N-terminus assumed
SMILES: CC(C)C[C@@H]1NC(=O)CNC(=O)CNC(=O)[C@H](Cc2ccccc2)NC(=O)[C@H](Cc2c[nH]cn2)NC(=O)CNC(=O)[C@H](C)N(C)C(=O)[C@@H](NC(=O)[C@H](Cc2ccccc2)NC(=O)[C@H](CCCNC(=N)N)NC(=O)[C@@H](N)CCC(N)=O)C(C)(C)SSC[C@@H](C(=O)N[C@@H](CC(N)=O)C(=O)NCC(=O)N2CCC[C@H]2C(N)=O)NC(=O)[C@@H]2CCCN2C(=O)[C@H](Cc2ccc(O)cc2)NC1=O
Question: What does the source list for B1?
Answer: Kd [8]: 1 µM; IC50 [9]: 5.5 µM

Question: RFXTGHFGGLYPCNGP (Pen at 3; NMeLeu at 10; disulfide; C-terminal amide) [Peptide No. 146] was tested. Which Kd [10] did it give?
Answer: 0.059 µM

Question: And the Kd [11]?
Answer: 0.28 µM

Question: And the IC50 [12]?
Answer: 2.1 µM

Question: For RFXTGHFGPLYPCNGP (Pen at 3; D-Pro at 9; disulfide; C-terminal amide) [Peptide No. 144], which IC50 [13] is on record?
Answer: 1.5 µM

Question: With RF[Pen]TGHFG[Sar]YPCNGP-NH2 (disulfide 3-12 (inferred), printed without the Leu after Sar) [Peptide No. 147] as the binder, how does the Kd [10] read?
Answer: 0.058 µM

Question: What about the Kd [11] of the same binder?
Answer: 0.35 µM

Question: What about the IC50 [12] of the same binder?
Answer: 1 µM

Question: Which results are given for RFXTGHFGGLYPC (Pen at 3; disulfide; C-terminal amide) [Peptide No. 99]?
Answer: IC50 [13]: 2 µM; IC50 [14]: 2 µM

Question: AGQRFCTGHFGGLYPCNGPGTGGGK-NH2 (disulfide 6-16 (inferred)) [SEQ ID NO:6] was tested. Which Kd [4] did it give?
Answer: 5.7 µM

Question: And the Kd [15]?
Answer: 5.7 µM

Question: What about the Kd [5] of the same binder?
Answer: 45 µM

Question: What about the Kd [16] of the same binder?
Answer: 45 µM

Question: What about the IC50 [6] of the same binder?
Answer: 36 µM

Question: What about the IC50 [17] of the same binder?
Answer: 36 µM

Question: For QRFXTGHFGGLYPCNGP (D-Phe at 3; Pen at 4; disulfide; C-terminal amide) [Peptide No. 96], which IC50 [7] is on record?
Answer: 11.4 µM

Question: QRFXTGHFGGLXPCNGP (Pen at 4; 4-amino-Phe at 12; disulfide; C-terminal amide) [Peptide No. 63] was tested. Which Kd [18] did it give?
Answer: 34 µM

Question: What about the IC50 [19] of the same binder?
Answer: 110 µM

Question: Which Kd [18] does the source give for QRFXTGHFGGLXPCNGP (Pen at 4; 3-pyridylAla at 12; disulfide; C-terminal amide) [Peptide No. 67] here?
Answer: 34 µM

Question: And the IC50 [19]?
Answer: 92 µM

B2: Peptide No. 216 (peptide)
peptide: QRFXTGHFGXYPCNGP
modifications: Pen at 4; X at 10 = L,L-Friedinger's lactam (dipeptide mimetic for Gly-Leu); disulfide; C-terminal amide
Question: B2 was tested. Which IC50 [20] did it give?
Answer: 19 µM

B3: Peptide No. 194 (peptide)
peptide: QRFXTGHFGXYPCNGP
modifications: Pen at 4; X at 10 = D,L-Friedinger's lactam (dipeptide mimetic for Gly-Leu); disulfide; C-terminal amide
Question: How did the IC50 [20] turn out when B3 was run?
Answer: 4.9 µM

Question: What does the source list for AGGGCVTGHFGGIYCNTQGTGGGK-NH2 (disulfide 5-15 (inferred)) [SEQ ID NO:7]?
Answer: Kd [4]: 5.2 µM; Kd [5]: 34.7 µM

B4: Peptide No. 185 (peptide)
peptide: RFVTGHFXLYPA
modifications: X at 8 = 3-amino-N-1-carboxymethyl-2,3,4,5-tetrahydro-1H-[1]-benzazepine-2-one (drawing CHEM-US-00097); linear; C-terminal amide
Question: Which Kd [21] does the source give for B4 here?
Answer: 3.1 µM

Question: What about the IC50 [22] of the same binder?
Answer: 57 µM

Question: QRFVTGHF[3‑amino‑2‑oxo‑1‑piperidine‑acetic acid]WYPINGP-NH2 (also: further groups not given here) [Peptide No. 191] was tested. Which Kd [21] did it give?
Answer: 333 µM

Question: RFVTGHF[6,5‑bicyclic dipeptide mimic]LYPA-NH2 (reading uncertain) [Peptide No. 207] was tested. Which Kd [21] did it give?
Answer: 20 µM

Question: What about the IC50 [22] of the same binder?
Answer: > 125 µM

B5: Peptide No. 208 (peptide)
peptide: RFVTGHF[X3]LYPA-NH2
modifications: N-terminus assumed
SMILES: CC(C)C[C@H](NC(=O)CN1CCCC[C@H](NC(=O)[C@H](Cc2ccccc2)NC(=O)[C@H](Cc2c[nH]cn2)NC(=O)CNC(=O)[C@@H](NC(=O)[C@@H](NC(=O)[C@H](Cc2ccccc2)NC(=O)[C@@H](N)CCCNC(=N)N)C(C)C)[C@@H](C)O)C1=O)C(=O)N[C@@H](Cc1ccc(O)cc1)C(=O)N1CCC[C@H]1C(=O)N[C@@H](C)C(N)=O
Question: What does the source list for B5?
Answer: Kd [21]: 2.3 µM; IC50 [22]: 23 µM

B6: Peptide No. 287 (peptide)
peptide: RFXTGHFGGLYPCG
modifications: Pen at 3; Sar at 9; NMeLeu at 10; intrachain disulfide; C-termini joined on a branching Lys
notes: C-terminally linked dimer
Question: With B6 as the binder, how does the IC50 [23] read?
Answer: 0.02 µM

B7: Peptide No. 288 (peptide)
peptide: RFXTGHFGGLYPCGG
modifications: Pen at 3; Sar at 9; NMeLeu at 10; intrachain disulfide; C-termini joined on a branching Lys
notes: C-terminally linked dimer
Question: Which IC50 [23] does the source give for B7 here?
Answer: 0.016 µM

Question: With AGKIICSPGHFGGMYCQGKGTGGGK-NH2 (disulfide 6-16 (inferred)) [SEQ ID NO:8] as the binder, how does the Kd [4] read?
Answer: 22 µM

Question: And the IC50 [6]?
Answer: 64 µM
